pIC50: −log10 of the molar value. Values belong to the substance of their own block, whether it stands above or below them.
Tests used:
CD28 receptor (human) [1] = target: CD28 receptor (human) (UniProt P10747); experiment: cell-based or functional assay
CD28 receptor (human) [2] = target: CD28 receptor (human) (UniProt P10747); experiment: inhibition of adhesion of PM lymphoblastoid cells to CD28+ CHO monolayers
CD28 receptor (human) [3] = target: CD28 receptor (human) (UniProt P10747); experiment: adhesion of T51 cells to CD28+ CHO cells, mAb 9.3 at 10 µg/ml without EDTA
CD28 receptor (human) [4] = target: CD28 receptor (human) (UniProt P10747); experiment: adhesion of T51 cells to CD28+ CHO cells, mAb 9.3 at 10 µg/ml plus EDTA
CD28 receptor (human) [5] = target: CD28 receptor (human) (UniProt P10747); experiment: adhesion of B7-transfected COS cells to CD28+ CHO cells, EDTA omitted
B7 antigen (human) [6] = target: B7 antigen (human) (UniProt P33681); experiment: flow cytometry, direct staining of HSB2 cells (T-ALL, negative for CD28 adhesion; presence of B7 not shown)
B7 antigen (human) [7] = target: B7 antigen (human) (UniProt P33681); experiment: flow cytometry, direct staining of 5E1 cells (B-LCL, positive for CD28 adhesion)
B7 antigen (human) [8] = target: B7 antigen (human) (UniProt P33681); experiment: flow cytometry, direct staining of Raji cells (BL, positive for CD28 adhesion)
B7 antigen (human) [9] = target: B7 antigen (human) (UniProt P33681); experiment: flow cytometry, 5E1 cells preincubated with unlabeled BB-1
B7 antigen (human) [10] = target: B7 antigen (human) (UniProt P33681); experiment: flow cytometry, direct staining of Jijoye cells (BL, positive for CD28 adhesion)
B7 antigen (human) [11] = target: B7 antigen (human) (UniProt P33681); experiment: adhesion of T51 cells to CD28+ CHO cells, screen of a mAb panel
B7 antigen (human) [12] = target: B7 antigen (human) (UniProt P33681); experiment: flow cytometry, Raji cells preincubated with unlabeled BB-1
B7 antigen (human) [13] = target: B7 antigen (human) (UniProt P33681); experiment: flow cytometry, Daudi cells; (- cold) minus (+ cold)
B7 antigen (human) [14] = target: B7 antigen (human) (UniProt P33681); experiment: flow cytometry, Jijoye cells; (- cold) minus (+ cold)
B7 antigen (human) [15] = target: B7 antigen (human) (UniProt P33681); experiment: cell-based or functional assay
B7 antigen (human) [16] = target: B7 antigen (human) (UniProt P33681); experiment: adhesion of Jijoye cells to CD28+ CHO cells in 10 mM EDTA, BB-1 below 1 µg/ml
B7 antigen (human) [17] = target: B7 antigen (human) (UniProt P33681); experiment: flow cytometry, Jijoye cells preincubated with unlabeled BB-1
B7 antigen (human) [18] = target: B7 antigen (human) (UniProt P33681); experiment: flow cytometry, direct staining of Namalwa cells (BL, negative for CD28 adhesion; presence of B7 not shown)
B7 antigen (human) [19] = target: B7 antigen (human) (UniProt P33681); experiment: flow cytometry, direct staining of T51 cells (B-LCL, positive for CD28 adhesion)
B7 antigen (human) [20] = target: B7 antigen (human) (UniProt P33681); experiment: flow cytometry, direct staining of 1A2 cells (B-LCL, negative for CD28 adhesion; presence of B7 not shown)
B7 antigen (human) [21] = target: B7 antigen (human) (UniProt P33681); experiment: flow cytometry, HL60 cells preincubated with unlabeled BB-1
B7 antigen (human) [22] = target: B7 antigen (human) (UniProt P33681); experiment: flow cytometry, direct staining of THP-1 cells (AML, negative for CD28 adhesion; presence of B7 not shown)
B7 antigen (human) [23] = target: B7 antigen (human) (UniProt P33681); experiment: flow cytometry, Raji cells; (- cold) minus (+ cold)
B7 antigen (human) [24] = target: B7 antigen (human) (UniProt P33681); experiment: flow cytometry, T51 cells; (- cold) minus (+ cold)
B7 antigen (human) [25] = target: B7 antigen (human) (UniProt P33681); experiment: flow cytometry, HSB2 cells preincubated with unlabeled BB-1
B7 antigen (human) [26] = target: B7 antigen (human) (UniProt P33681); experiment: flow cytometry, 1A2 cells preincubated with unlabeled BB-1
B7 antigen (human) [27] = target: B7 antigen (human) (UniProt P33681); experiment: flow cytometry, direct staining of Daudi cells (BL, positive for CD28 adhesion)
B7 antigen (human) [28] = target: B7 antigen (human) (UniProt P33681); experiment: flow cytometry, T51 cells preincubated with unlabeled BB-1
B7 antigen (human) [29] = target: B7 antigen (human) (UniProt P33681); experiment: flow cytometry, CEM cells preincubated with unlabeled BB-1
B7 antigen (human) [30] = target: B7 antigen (human) (UniProt P33681); experiment: flow cytometry, Daudi cells preincubated with unlabeled BB-1
B7 antigen (human) [31] = target: B7 antigen (human) (UniProt P33681); experiment: flow cytometry, Namalwa cells (negative for CD28 adhesion); (- cold) minus (+ cold)
B7 antigen (human) [32] = target: B7 antigen (human) (UniProt P33681); experiment: flow cytometry, direct staining of HL60 cells (AML, negative for CD28 adhesion; presence of B7 not shown)
B7 antigen (human) [33] = target: B7 antigen (human) (UniProt P33681); experiment: flow cytometry, 5E1 cells; (- cold) minus (+ cold)
B7 antigen (human) [34] = target: B7 antigen (human) (UniProt P33681); experiment: flow cytometry, THP-1 cells preincubated with unlabeled BB-1

Sequence of B7 antigen (human) (P33681 35-288): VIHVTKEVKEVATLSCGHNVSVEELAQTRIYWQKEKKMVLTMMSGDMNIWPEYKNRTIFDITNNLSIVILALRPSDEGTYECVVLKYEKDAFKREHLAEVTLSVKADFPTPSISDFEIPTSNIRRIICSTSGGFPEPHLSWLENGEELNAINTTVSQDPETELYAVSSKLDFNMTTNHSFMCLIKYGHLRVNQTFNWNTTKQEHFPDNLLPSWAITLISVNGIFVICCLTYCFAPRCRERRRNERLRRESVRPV

[3H]-T incorporation, PBL, + Anti-CD3, B7Ig (immob.), Exp. 1 (CD28 receptor (human) [1]): 174000 cpm
[3H]-T incorporation, PBL, - Anti-CD3, B7Ig (immob.), Exp. 1 (CD28 receptor (human) [1]): 100 cpm
Substance: B7Ig fusion protein (from UniProt P33681 35-215; P01857 99-330) (Fc fusion)

pIC50 (CD28 receptor (human) [2]): 8.00
[3H]-T incorporation, PBL, + Anti-CD3, mAb 9.3 (immob.), Exp. 1 (CD28 receptor (human) [1]): 137000 cpm
[3H]-T incorporation, PBL, + Anti-CD3, mAb 9.3 (soln.), Exp. 1 (CD28 receptor (human) [1]): 156000 cpm
[3H]-T incorporation, PBL, + Anti-CD3, mAb 9.3 (soln.), Exp. 2 (CD28 receptor (human) [1]): 75800 cpm
[3H]-T incorporation, PBL, - Anti-CD3, mAb 9.3 (immob.), Exp. 1 (CD28 receptor (human) [1]): 100 cpm
[3H]-T incorporation, PBL, - Anti-CD3, mAb 9.3 (soln.), Exp. 1 (CD28 receptor (human) [1]): 300 cpm
[3H]-T incorporation, PBL, - Anti-CD3, mAb 9.3 (soln.), Exp. 2 (CD28 receptor (human) [1]): 400 cpm
percent reduction of adhesion (CD28 receptor (human) [3]): 62%
percent reduction of adhesion (CD28 receptor (human) [4]): 93%
percent of adhesion blocked (CD28 receptor (human) [5]): 40%
Substance: Monoclonal antibody (mAb) 9.3 (anti-CD28)

[3H]-T incorporation, PHA blasts stimulated with B7+ CHO (40:1), with 9.3 Fab at 10 µg/ml (CD28 receptor (human) [1]): 132000 cpm
Substance: mAb 9.3 (Fab fragments)

mean fluorescence (linear units), - COLD (B7 antigen (human) [6]): 2.3 linear units
mean fluorescence (linear units), - COLD (B7 antigen (human) [7]): 13 linear units
mean fluorescence (linear units), - COLD (B7 antigen (human) [8]): 7.1 linear units
mean fluorescence (linear units), + COLD (B7 antigen (human) [9]): 2.4 linear units
mean fluorescence (linear units), - COLD (B7 antigen (human) [10]): 17.8 linear units
percent of CD28-mediated adhesion blocked (B7 antigen (human) [11]): > 30%
mean fluorescence (linear units), + COLD (B7 antigen (human) [12]): 2.8 linear units
SPECIFIC BINDING (mean fluorescence, linear units) (B7 antigen (human) [13]): 3.6 linear units
SPECIFIC BINDING (mean fluorescence, linear units) (B7 antigen (human) [14]): 15 linear units
[3H]-T incorporation, PHA blasts stimulated with B7+ CHO (40:1), with BB-1 at 10 µg/ml (B7 antigen (human) [15]): 98300 cpm
percent of adhesion blocked (B7 antigen (human) [16]): 60%
mean fluorescence (linear units), + COLD (B7 antigen (human) [17]): 2.8 linear units
mean fluorescence (linear units), - COLD (B7 antigen (human) [18]): 3.8 linear units
mean fluorescence (linear units), - COLD (B7 antigen (human) [19]): 16.4 linear units
mean fluorescence (linear units), - COLD (B7 antigen (human) [20]): 4.5 linear units
mean fluorescence (linear units), + COLD (B7 antigen (human) [21]): 3.1 linear units
mean fluorescence (linear units), - COLD (B7 antigen (human) [22]): 3.1 linear units
SPECIFIC BINDING (mean fluorescence, linear units) (B7 antigen (human) [23]): 4.3 linear units
SPECIFIC BINDING (mean fluorescence, linear units) (B7 antigen (human) [24]): 13.4 linear units
mean fluorescence (linear units), + COLD (B7 antigen (human) [25]): 2.3 linear units
mean fluorescence (linear units), + COLD (B7 antigen (human) [26]): 4.3 linear units
mean fluorescence (linear units), - COLD (B7 antigen (human) [27]): 6.4 linear units
mean fluorescence (linear units), + COLD (B7 antigen (human) [28]): 3 linear units
mean fluorescence (linear units), + COLD (B7 antigen (human) [29]): 1.9 linear units
mean fluorescence (linear units), + COLD (B7 antigen (human) [30]): 2.8 linear units
SPECIFIC BINDING (mean fluorescence, linear units) (B7 antigen (human) [31]): 1.6 linear units
mean fluorescence (linear units), - COLD (B7 antigen (human) [32]): 3.1 linear units
SPECIFIC BINDING (mean fluorescence, linear units) (B7 antigen (human) [33]): 10.6 linear units
mean fluorescence (linear units), + COLD (B7 antigen (human) [34]): 3 linear units
Substance: mAb BB-1 (anti-B7) (antibody)

— patent publication US6641809
